Test results as given in patent US20220073586A1 (EUTILEX, published 2022).

T1: PD-L2 antigen (coated on 96-well immunoplate) (UniProt Q9BQ51 20-220, limits assumed)
T1 construct: also called antigen PD-L2
T1 sequence (looked up): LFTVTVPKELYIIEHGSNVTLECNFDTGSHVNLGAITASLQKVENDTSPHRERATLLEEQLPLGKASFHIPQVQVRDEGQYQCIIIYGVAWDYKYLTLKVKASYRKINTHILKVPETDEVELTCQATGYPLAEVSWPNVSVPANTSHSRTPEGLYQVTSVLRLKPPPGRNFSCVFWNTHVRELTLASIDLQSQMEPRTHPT


What was measured:
[1] = biological target: PD-L1 molecules (Sino, Cat #10084-H08H) (UniProt Q9NZQ7 19-238); assay: SPR, Biacore T200; PD-1 Fc fusion fixed on CM5 chip, PD-L1 injected at 3.125-100 nM
[2] = biological target: T1, PD-L2 antigen (coated on 96-well …); assay: single antigen ELISA, PD-L2 coated at 1 ug/mL, detection with anti-hFc-HRP
Method: (§1) Briefly, after coating PD-L1 antigen or PD-L2 antigen at a concentration of 1 μg/ml in a 96-well immunoplate at 4° C. overnight, 150 μl of 1× assay buffer (Biolegend) was treated for 1 hour to block non-specific binding. […] The treatment concentration on the antigen PD-L1-coated plate was serially diluted from 30 μg/mL to 3 times to make a total of 15 points, The treatment concentration on the antigen PD-L2 coated plate was serially diluted 3 times from 100 μg/mL to a total of 12 points. Anti-hFc-HRP (Biolegend) was treated with 100 μl at a concentration of 0.4 μg/mL. After incubation for 1 hour, color was developed with TMB, and after 3 minutes, the reaction was stopped using sulfuric acid. Washing was performed 3 times using washing buffer in all processes except for the process after TMB treatment, All processes except for the antigen coating process were carried out at room temperature.

[3] = biological target: T2, PD-L1 antigen (coated on 96-well immunoplate) (UniProt Q9NZQ7 19-238, limits assumed); assay: single antigen ELISA, PD-L1 coated at 1 ug/mL, detection with anti-hFc-HRP
T2 construct: also called antigen PD-L1
Method: as §1

Chain of PD-L1 molecules (Sino, Cat #10084-H08H) (Q9NZQ7 19-238 limits assumed): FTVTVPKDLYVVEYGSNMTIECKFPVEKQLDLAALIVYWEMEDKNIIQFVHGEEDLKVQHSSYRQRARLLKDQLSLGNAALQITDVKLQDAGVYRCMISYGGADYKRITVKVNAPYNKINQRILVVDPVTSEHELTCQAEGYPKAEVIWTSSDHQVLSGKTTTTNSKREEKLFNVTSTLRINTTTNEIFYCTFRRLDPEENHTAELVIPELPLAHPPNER
T2 sequence (Q9NZQ7 19-238 limits assumed): as above

Row | Kd [1] | koff [1] | kon [1] | binding result [2] | EC50 (read off the curve) [3] | Binder
1 | 1.04 nM | 0.00182 s⁻¹ | 1.76e+06 M⁻¹ s⁻¹ | – | – | PD-1.m8 Fc fusion protein (Fc fusion) FLESPDRPWNAPTFSPALLLVAEGDNATFTCSFSNASESFHVVWHRESPSGQTDTLAAFPEDRSQPGQDHRFRVTRLPNGRDFHMSVVRAQRNDSGTYVCGVISLAPKIQIKESLGAELRVTERRAEVPTAHPSPSPRPAGQFQTLVVGGGGGSSNTKVDKRVEPKSCDKTHTCPPCPAPPVAGPSVFLFPPKPKDTLMISRTPEVTCVVVDVSHEDPEVQFNWYVDGVEVHNAKTKPREEQFNSTFRVVSVLTVVHQDWLNGKEYKCKVSNKGLPAPIEKTISKTKGQPREPQVYTLPPSREEMTKNQVSLTCLVKGFYPSDIAVEWESNGQPENNYKTTPPMLDSDGSFFLYSKLTVDKSRWQQGNVFSCSVMHEALHNHYTQKSLSLSPGK
2 | 0.714 nM | 0.0013 s⁻¹ | 1.82e+06 M⁻¹ s⁻¹ | no binding (tested: 100 ug/mL) | ~0.03 mg/L | euPD-1 Fc fusion protein (Fc fusion) FLESPDRPWNAPTFSPALLLVAEGDNATFTCSFSNASESFHVVWHRESPSGQTDTLAAFPEDRSQPGQDHRFRVTRLPNGRDFHMSVVRAQRNDSGTYVCGVISLAPKIQIKESLRAELRVTERRAEVPTAHPSPSPRPAGQFQTLVVGGGGGSSNTKVDKRVEPKSCDKTHTCPPCPAPPVAGPSVFLFPPKPKDTLMISRTPEVTCVVVDVSHEDPEVQFNWYVDGVEVHNAKTKPREEQFNSTFRVVSVLTVVHQDWLNGKEYKCKVSNKGLPAPIEKTISKTKGQPREPQVYTLPPSREEMTKNQVSLTCLVKGFYPSDIAVEWESNGQPENNYKTTPPMLDSDGSFFLYSKLTVDKSRWQQGNVFSCSVMHEALHNHYTQKSLSLSPGK
3 | 1.1 nM | 0.00216 s⁻¹ | 1.96e+06 M⁻¹ s⁻¹ | – | – | PD-1.m7 Fc fusion protein (Fc fusion) FLESPDRPWNAPTFSPALLLVAEGDNATFTCSFSNASESFHVVWHRESPSGQTDTLAAFPEDRSQPGQDCRFRVTRLPNGRDFHMSVVRARRNDSGTYVCGVISLAPKIQIKESLGAELRVTERRAEVPTAHPSPSPRPAGQFQTLVVGGGGGSSNTKVDKRVEPKSCDKTHTCPPCPAPPVAGPSVFLFPPKPKDTLMISRTPEVTCVVVDVSHEDPEVQFNWYVDGVEVHNAKTKPREEQFNSTFRVVSVLTVVHQDWLNGKEYKCKVSNKGLPAPIEKTISKTKGQPREPQVYTLPPSREEMTKNQVSLTCLVKGFYPSDIAVEWESNGQPENNYKTTPPMLDSDGSFFLYSKLTVDKSRWQQGNVFSCSVMHEALHNHYTQKSLSLSPGK
